# Measured values from article PMC9278117.
# pKd: −log10 of the molar value.
# Assays:
# 4A8 monoclonal antibody = assay: BLI
# CB6 monoclonal antibody = assay: BLI
substance,measurement,setting,value
SARS-CoV-2 S1-SpyTag monomer (from UniProt P0DTC2 16-685) (domain or fragment),pKd,4A8 monoclonal antibody,7.47
same,pKd,CB6 monoclonal antibody,8.26
